Where a chain is given by its changes, count along the chain named.
B1: B21H4-45 (antibody, human IgG4 S228P, kappa)
heavy: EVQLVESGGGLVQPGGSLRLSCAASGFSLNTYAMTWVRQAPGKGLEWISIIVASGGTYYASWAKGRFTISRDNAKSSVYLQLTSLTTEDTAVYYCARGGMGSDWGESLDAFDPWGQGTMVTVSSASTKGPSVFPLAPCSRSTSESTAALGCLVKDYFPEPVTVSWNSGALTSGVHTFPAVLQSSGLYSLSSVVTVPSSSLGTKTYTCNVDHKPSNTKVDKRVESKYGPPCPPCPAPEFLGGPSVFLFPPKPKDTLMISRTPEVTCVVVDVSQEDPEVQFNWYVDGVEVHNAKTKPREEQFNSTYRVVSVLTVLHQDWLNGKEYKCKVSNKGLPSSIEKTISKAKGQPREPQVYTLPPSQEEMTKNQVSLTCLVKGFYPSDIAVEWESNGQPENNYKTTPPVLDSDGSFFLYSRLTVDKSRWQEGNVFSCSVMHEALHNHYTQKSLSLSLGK
light: DIQMTQTPSTVEASVGGTVTITCQASGNIYSFLAWYQQKPGQPPKLLIYTASNLETGVPSRFSGSGSGTEYTLTISGLQSDDAATYYCLGGLYSSDVSYAFGGGTEVVVKRTVAAPSVFIFPPSDEQLKSGTASVVCLLNNFYPREAKVQWKVDNALQSGNSQESVTEQDSKDSTYSLSSTLTLSKADYEKHKVYACEVTHQGLSSPVTKSFNRGEC
notes: humanized IgG4/kappa, VH4+VL5; transfection supernatant
B2: B21H4-35 (antibody, human IgG4 S228P, kappa, V domains shown)
VH: EVQLVESGGDLAQPGGSLRLSCAVSGFSLNTYAMTWVRQAPGKGLEWVSIIVASGGTYYASWAKGRFTISRDNSKNTVYLQMTSLRAEDTALYFCARGGMGSDWGESLDAFDPWGQGTLVTVSS
VL: DIQMTQTPSTVEASVGGTVTITCQASGNIYSFLAWYQQKPGQPPKLLIYTASNLETGVPSRFSGSGSGTEYTLTISGLQSDDAATYYCLGGLYSSDVSYAFGGGTEVVVKR
notes: humanized IgG4/kappa, VH3+VL5; transfection supernatant
B3: B21H4-31 (antibody, human IgG4 S228P, kappa, V domains shown)
VH: B2 VH
VL: DIQMTQSPSTLSASVGDRVTITCQASGNIYSFLAWYQQKPGKAPKLLIYTASNLETGVPSRFSGSGSGTEYTLTISSLQPDDFATYYCLGGLYSSDVSYAFGPGTKVEIKR
notes: humanized IgG4/kappa, VH3+VL1; transfection supernatant
B4: B21H4-25 (antibody, human IgG4 S228P, kappa)
heavy: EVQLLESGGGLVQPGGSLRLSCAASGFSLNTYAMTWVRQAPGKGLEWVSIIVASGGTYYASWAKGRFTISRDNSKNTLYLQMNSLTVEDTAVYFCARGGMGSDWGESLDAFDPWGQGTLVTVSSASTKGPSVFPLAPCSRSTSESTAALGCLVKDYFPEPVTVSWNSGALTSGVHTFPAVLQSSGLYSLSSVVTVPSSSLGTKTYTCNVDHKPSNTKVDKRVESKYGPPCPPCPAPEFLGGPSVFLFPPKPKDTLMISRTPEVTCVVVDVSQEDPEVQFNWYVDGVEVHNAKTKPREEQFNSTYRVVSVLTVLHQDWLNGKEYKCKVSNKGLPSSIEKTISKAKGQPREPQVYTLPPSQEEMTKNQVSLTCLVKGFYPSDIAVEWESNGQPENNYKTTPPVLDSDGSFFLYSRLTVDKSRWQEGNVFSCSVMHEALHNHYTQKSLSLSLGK
light: B1 light
notes: humanized IgG4/kappa, VH2+VL5; transfection supernatant
B5: B21H4-15 (antibody, human IgG4 S228P, kappa)
heavy: not shown
light: B1 light
notes: humanized IgG4/kappa, VH1+VL5; transfection supernatant
B6: B21H4-55 (antibody, human IgG4 S228P, kappa)
heavy: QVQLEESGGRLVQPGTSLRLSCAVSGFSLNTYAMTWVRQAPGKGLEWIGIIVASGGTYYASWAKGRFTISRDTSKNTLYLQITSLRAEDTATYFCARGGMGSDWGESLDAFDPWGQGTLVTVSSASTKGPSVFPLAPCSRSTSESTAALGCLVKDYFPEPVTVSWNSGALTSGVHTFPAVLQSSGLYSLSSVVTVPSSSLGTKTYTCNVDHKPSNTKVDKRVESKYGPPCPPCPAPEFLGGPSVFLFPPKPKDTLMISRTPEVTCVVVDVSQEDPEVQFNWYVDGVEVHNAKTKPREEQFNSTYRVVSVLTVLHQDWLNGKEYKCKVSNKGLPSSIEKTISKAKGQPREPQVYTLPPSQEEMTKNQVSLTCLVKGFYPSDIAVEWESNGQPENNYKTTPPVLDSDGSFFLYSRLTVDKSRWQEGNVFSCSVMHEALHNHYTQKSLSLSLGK
light: B1 light
notes: humanized IgG4/kappa, VH5+VL5; transfection supernatant
B7: B21H4-41 (antibody, human IgG4 S228P, kappa, V domains shown)
VH: EVQLVESGGGLVQPGGSLRLSCAASGFSLNTYAMTWVRQAPGKGLEWISIIVASGGTYYASWAKGRFTISRDNAKSSVYLQLTSLTTEDTAVYYCARGGMGSDWGESLDAFDPWGQGTMVTVSS
VL: B3 VL
notes: humanized IgG4/kappa, VH4+VL1; transfection supernatant
B8: B21H4-51 (antibody, human IgG4 S228P, kappa, V domains shown)
VH: QVQLEESGGRLVQPGTSLRLSCAVSGFSLNTYAMTWVRQAPGKGLEWIGIIVASGGTYYASWAKGRFTISRDTSKNTLYLQITSLRAEDTATYFCARGGMGSDWGESLDAFDPWGQGTLVTVSS
VL: B3 VL
notes: humanized IgG4/kappa, VH5+VL1; transfection supernatant
B9: B21H4-53 (antibody, human IgG4 S228P, kappa, V domains shown)
VH: B8 VH
VL: B3 VL with Q3V, T10S, L11V, E70D, Y71F, D81E, P103G, E108V
notes: humanized IgG4/kappa, VH5+VL3; transfection supernatant
B10: B21H4-54 (antibody, human IgG4 S228P, kappa, V domains shown)
VH: B8 VH
VL: B3 VL with I2V, Q3V, L11V, I21L, K42Q, A43P, S60D, E70D, P80A, P103Q
notes: humanized IgG4/kappa, VH5+VL4; transfection supernatant
B11: B21H4-44 (antibody, human IgG4 S228P, kappa, V domains shown)
VH: B7 VH
VL: B3 VL with I2V, Q3V, L11V, I21L, K42Q, A43P, S60D, E70D, P80A, P103Q
notes: humanized IgG4/kappa, VH4+VL4; transfection supernatant
B12: B21H4-11 (antibody, human IgG4 S228P, kappa)
heavy: not shown
light: DIQMTQSPSTLSASVGDRVTITCQASGNIYSFLAWYQQKPGKAPKLLIYTASNLETGVPSRFSGSGSGTEYTLTISSLQPDDFATYYCLGGLYSSDVSYAFGPGTKVEIKRTVAAPSVFIFPPSDEQLKSGTASVVCLLNNFYPREAKVQWKVDNALQSGNSQESVTEQDSKDSTYSLSSTLTLSKADYEKHKVYACEVTHQGLSSPVTKSFNRGEC
notes: humanized IgG4/kappa, VH1+VL1; transfection supernatant
B13: B21H4-32 (antibody, human IgG4 S228P, kappa)
heavy: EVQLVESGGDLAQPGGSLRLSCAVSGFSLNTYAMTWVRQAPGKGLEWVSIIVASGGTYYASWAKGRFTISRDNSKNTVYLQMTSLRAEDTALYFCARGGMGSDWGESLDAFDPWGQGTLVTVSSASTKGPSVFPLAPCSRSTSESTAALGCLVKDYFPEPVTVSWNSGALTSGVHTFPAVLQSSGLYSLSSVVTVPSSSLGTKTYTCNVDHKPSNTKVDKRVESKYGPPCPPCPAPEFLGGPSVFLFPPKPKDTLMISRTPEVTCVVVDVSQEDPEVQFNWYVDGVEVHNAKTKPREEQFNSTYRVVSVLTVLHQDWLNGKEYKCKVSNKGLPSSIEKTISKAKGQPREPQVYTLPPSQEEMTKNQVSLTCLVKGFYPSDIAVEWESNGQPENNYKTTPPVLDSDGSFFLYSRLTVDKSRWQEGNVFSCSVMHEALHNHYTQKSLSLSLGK
light: B12 light with T10S, A43V, E70D, P80S, D81E, F83A, P103G, E108V
notes: humanized IgG4/kappa, VH3+VL2; transfection supernatant
B14: B21H4-12 (antibody, human IgG4 S228P, kappa)
heavy: not shown
light: B12 light with T10S, A43V, E70D, P80S, D81E, F83A, P103G, E108V
notes: humanized IgG4/kappa, VH1+VL2; transfection supernatant
B15: B21H4-23 (antibody, human IgG4 S228P, kappa)
heavy: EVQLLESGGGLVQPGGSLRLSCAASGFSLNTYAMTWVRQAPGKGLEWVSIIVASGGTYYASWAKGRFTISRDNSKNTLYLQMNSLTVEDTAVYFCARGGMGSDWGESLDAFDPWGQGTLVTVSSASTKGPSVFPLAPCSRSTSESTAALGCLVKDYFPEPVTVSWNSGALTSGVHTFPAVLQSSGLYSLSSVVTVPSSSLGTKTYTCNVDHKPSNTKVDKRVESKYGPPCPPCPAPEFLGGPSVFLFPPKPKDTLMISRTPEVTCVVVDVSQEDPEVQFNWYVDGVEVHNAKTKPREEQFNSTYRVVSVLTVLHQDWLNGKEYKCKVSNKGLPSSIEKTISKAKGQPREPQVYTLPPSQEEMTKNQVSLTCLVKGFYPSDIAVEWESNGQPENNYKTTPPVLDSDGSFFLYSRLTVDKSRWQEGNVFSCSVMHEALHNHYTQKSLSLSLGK
light: B12 light with Q3V, T10S, L11V, E70D, Y71F, D81E, P103G, E108V
notes: humanized IgG4/kappa, VH2+VL3; transfection supernatant
B16: B21H4-42 (antibody, human IgG4 S228P, kappa)
heavy: not shown
light: B12 light with T10S, A43V, E70D, P80S, D81E, F83A, P103G, E108V
notes: humanized IgG4/kappa, VH4+VL2; transfection supernatant
B17: B21H4-22 (antibody, human IgG4 S228P, kappa)
heavy: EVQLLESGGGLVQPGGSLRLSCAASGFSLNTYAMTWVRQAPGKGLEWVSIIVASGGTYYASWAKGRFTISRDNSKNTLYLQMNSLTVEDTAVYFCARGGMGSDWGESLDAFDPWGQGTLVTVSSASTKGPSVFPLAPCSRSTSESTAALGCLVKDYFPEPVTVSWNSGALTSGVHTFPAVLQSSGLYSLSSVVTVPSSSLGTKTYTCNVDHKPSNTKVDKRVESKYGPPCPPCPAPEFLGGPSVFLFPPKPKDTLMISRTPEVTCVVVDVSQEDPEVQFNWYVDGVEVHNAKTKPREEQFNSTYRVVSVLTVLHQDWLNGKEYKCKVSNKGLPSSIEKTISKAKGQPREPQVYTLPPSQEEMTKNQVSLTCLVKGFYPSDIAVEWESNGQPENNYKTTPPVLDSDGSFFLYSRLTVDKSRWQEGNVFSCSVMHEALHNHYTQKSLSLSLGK
light: B12 light with T10S, A43V, E70D, P80S, D81E, F83A, P103G, E108V
notes: humanized IgG4/kappa, VH2+VL2; transfection supernatant
B18: B21H4-24 (antibody, human IgG4 S228P, kappa)
heavy: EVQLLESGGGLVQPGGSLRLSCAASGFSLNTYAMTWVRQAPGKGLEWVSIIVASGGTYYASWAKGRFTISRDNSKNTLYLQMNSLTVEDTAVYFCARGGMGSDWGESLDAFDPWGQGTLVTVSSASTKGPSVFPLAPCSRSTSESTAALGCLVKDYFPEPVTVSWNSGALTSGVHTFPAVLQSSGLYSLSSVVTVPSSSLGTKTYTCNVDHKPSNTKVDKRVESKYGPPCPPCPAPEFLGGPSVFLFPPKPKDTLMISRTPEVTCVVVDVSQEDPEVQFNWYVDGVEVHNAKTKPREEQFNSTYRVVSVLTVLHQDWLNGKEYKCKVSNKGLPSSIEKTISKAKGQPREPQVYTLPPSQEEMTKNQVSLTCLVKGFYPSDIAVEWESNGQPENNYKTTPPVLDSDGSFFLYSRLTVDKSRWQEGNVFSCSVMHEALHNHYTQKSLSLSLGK
light: B12 light with I2V, Q3V, L11V, I21L, K42Q, A43P, S60D, E70D, P80A, P103Q
notes: humanized IgG4/kappa, VH2+VL4; transfection supernatant
B19: B21H4-43 (antibody, human IgG4 S228P, kappa)
heavy: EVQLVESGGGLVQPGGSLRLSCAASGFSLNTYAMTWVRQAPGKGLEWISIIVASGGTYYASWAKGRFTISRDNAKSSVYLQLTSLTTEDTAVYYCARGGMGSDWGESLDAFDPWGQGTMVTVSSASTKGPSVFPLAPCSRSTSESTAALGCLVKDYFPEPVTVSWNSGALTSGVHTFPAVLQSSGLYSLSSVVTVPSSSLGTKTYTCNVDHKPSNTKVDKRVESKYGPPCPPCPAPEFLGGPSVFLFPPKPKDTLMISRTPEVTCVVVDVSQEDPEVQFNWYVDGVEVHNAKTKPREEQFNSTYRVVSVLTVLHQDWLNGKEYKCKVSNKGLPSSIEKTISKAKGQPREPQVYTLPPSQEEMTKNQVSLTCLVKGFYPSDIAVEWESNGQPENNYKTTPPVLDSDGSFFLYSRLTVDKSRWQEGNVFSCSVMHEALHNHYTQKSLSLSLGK
light: B12 light with Q3V, T10S, L11V, E70D, Y71F, D81E, P103G, E108V
notes: humanized IgG4/kappa, VH4+VL3; transfection supernatant
B20: B21H4-33 (antibody, human IgG4 S228P, kappa)
heavy: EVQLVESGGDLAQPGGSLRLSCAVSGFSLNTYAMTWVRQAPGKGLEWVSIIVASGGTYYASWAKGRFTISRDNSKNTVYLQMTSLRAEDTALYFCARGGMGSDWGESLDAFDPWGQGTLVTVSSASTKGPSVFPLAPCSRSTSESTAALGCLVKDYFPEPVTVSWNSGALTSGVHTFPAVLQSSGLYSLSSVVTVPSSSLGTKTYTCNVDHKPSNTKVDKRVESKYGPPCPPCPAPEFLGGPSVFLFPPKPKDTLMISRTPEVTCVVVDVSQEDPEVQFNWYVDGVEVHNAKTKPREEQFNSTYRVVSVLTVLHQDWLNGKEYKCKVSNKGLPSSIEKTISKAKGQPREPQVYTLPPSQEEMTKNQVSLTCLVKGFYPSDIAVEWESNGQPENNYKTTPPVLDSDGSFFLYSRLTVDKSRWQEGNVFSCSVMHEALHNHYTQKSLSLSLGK
light: B12 light with Q3V, T10S, L11V, E70D, Y71F, D81E, P103G, E108V
notes: humanized IgG4/kappa, VH3+VL3; transfection supernatant
B21: B21H4-21 (antibody, human IgG4 S228P, kappa, V domains shown)
VH: B2 VH with V5L, D10G, A12V, V24A, V78L, T83N, R86T, A87V, L92V
VL: B3 VL
notes: humanized IgG4/kappa, VH2+VL1; transfection supernatant

Tests used:
[1] = target: T1, recombinant human LILRB1-His (human, UniProt Q8NHL6 24-458); experiment: MSD ELISA, coated antigen, transfection supernatant
T1 construct: Bought protein; also called LILRB1 protein
T1 sequence (Q8NHL6 24-458 limits assumed): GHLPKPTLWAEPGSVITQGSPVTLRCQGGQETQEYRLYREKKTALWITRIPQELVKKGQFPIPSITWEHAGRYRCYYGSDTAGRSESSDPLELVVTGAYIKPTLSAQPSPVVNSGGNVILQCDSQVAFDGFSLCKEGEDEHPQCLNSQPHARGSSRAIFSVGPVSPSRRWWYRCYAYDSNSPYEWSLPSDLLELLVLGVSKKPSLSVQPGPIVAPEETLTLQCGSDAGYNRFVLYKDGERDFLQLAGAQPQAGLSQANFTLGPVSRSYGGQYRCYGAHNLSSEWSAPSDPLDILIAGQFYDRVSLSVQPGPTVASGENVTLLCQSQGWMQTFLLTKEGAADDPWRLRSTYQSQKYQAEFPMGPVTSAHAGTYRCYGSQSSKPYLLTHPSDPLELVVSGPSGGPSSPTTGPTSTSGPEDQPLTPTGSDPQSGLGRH
Experimental: (§1) To confirm binding to human LILRB1 and human LILRB2, transfection supernatants (obtained in Example 2) were evaluated for binding by ELISA. The conditioned media from these transient transfections were assayed for human IgG concentration by AlphaLISA® immunoassay (PerkinElmer, No. AL310C) (Table 4). A plate-based MSD ELISA was performed in which human LILRB1-His or LILRB2-His was immobilized, and binding of transfection supernatants of humanized mAb variants was detected via an anti-human IgG Sulfo-tag-labeled secondary antibody. The IgG1 version of the parental rabbit/human chimera (designated B21A1) transfection served as the benchmark EC₅₀ positive control.
(§2) Recombinant human and cynomolgus LILRB1 proteins (R&D Systems, No. 8989-T2-050; ACROBiosystems, No. CDJ-C52H3) and recombinant human and cynomolgus LILRB2 proteins (ACROBiosystems, No. LI2-H5220; No. L12-C52H3) were diluted in PBS to 4 μg/mL and added to a multi-array 384-well high-binding plates (MSD, No. L21XA4) at 10 μL/well and incubated at 4° C. overnight. The plates were washed several times with Wash Buffer (0.05% Tween® 20 in PBS), using a microplate washer and then blocked with 70 μL/well of 5% BSA in PBS for 1 hour (h) at room temperature (RT) with shaking at 700 rpm. After blocking, 20 μL/well of anti-LILRB2/LILRB1 antibodies or isotype control were added to the plates, and the plates were sealed and incubated for 2 h at RT with shaking at 700 rpm. After primary antibody binding, plates were washed five times with 70 μL/well of Wash Buffer (0.05% Tween® 20 in PBS) using a microplate washer. Secondary detection antibody (SULFO-TAG™-labeled goat anti-human IgG antibody (MSD, No. R32AJ-1)) was diluted to 4 μg/mL in assay diluent (1% BSA in PBS) and 10 μL/well was added to plates and incubated at RT protected from light for 1 h, with shaking at 700 rpm. Following incubation, plates were washed five times with Wash Buffer, using a microplate washer. After removal of the final wash, 35 μL/well of MSD Gold Read Buffer B (MSD, No. R60AM-4) was added to all wells using a Multidrop combo washer/dispenser, and plates were read using MESO Sector 600MM instrument (MSD) within 5 minutes (min) after addition of Read Buffer. Signals as counts per minute (cpm) were recorded.

[2] = target: T2, recombinant human LILRB2-His (human, UniProt Q8N423 22-461, limits assumed); experiment: as above
T2 construct: Bought protein; also called LILRB2 protein
T2 sequence (Q8N423 22-461 limits assumed): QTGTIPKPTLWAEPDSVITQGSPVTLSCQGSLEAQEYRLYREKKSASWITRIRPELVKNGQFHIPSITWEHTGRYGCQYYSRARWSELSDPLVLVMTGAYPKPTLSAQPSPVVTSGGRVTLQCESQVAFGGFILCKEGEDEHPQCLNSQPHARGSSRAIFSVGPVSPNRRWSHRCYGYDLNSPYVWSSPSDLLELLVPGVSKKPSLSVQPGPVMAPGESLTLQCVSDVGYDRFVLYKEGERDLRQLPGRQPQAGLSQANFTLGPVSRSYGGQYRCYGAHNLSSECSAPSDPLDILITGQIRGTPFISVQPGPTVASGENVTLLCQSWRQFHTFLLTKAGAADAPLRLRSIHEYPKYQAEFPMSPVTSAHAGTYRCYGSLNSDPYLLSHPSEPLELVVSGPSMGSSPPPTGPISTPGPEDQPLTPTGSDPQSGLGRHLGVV
Experimental: as §1, §2

Binder | EC50 [1] [ng/mL] | EC50 [2] [ng/mL]
B1 | 4.7 | 0.26
B2 | 3.91 | 1.73
B3 | 3.58 | 2.02
B4 | 3.95 | 1.42
B5 | 3.1 | 1.25
B6 | 2.92 | 1.57
B7 | 5.71 | 1.38
B8 | 3.88 | 2.51
B9 | 4.7 | 1.67
B10 | 4.85 | 2.75
B11 | 3.23 | 1.63
B12 | 2.24 | 1.45
B13 | 2.46 | 0.95
B14 | 2.41 | 0.74
B15 | 2.85 | 1.08
B16 | 3.12 | 1.08
B17 | 1.85 | 1.06
B18 | 1.95 | 0.84
B19 | 3.04 | 0.63
B20 | 2.66 | 0.72
B21 | 2.32 | 1.93
